Measured values as given in patent US20070065446, “Anti-bambi antibody and diagnostic or remedy for colon cancer and liver cancer” (SCIMEDIA LTD., published 2007).

Key:
[1] = target: GST (UniProt P08515 P08515:1-218); assay: EMSA; GST control; settings: tags: pGEX-5X-1 (Pharmacia), E. coli DH5alpha; label: radioactive
Description: (§1) Five TCF-4 binding sequences on intron 1 were synthesized (TBE 1-5) and radioactively labeled, and shift assay was used to investigate whether they bound with GST-TCF.

[2] = target: T1, TCF4 (TCF7L2) residues 265-496, GST fusion (Homo sapiens, UniProt Q9NQB0-8 Q9NQB0-8:265-496); assay: EMSA; competed by excess unlabeled TBE; settings: tags: N-terminal GST (pGEX-5X-1), E. coli DH5alpha; label: radioactive
Description: as §1

[3] = target: T1, TCF4 (TCF7L2) residues 265-496, GST …; assay: competition; mutant unlabeled competitor does not compete in EMSA; settings: tags: N-terminal GST (pGEX-5X-1), E. coli DH5alpha
Description: as §1
The oligonucleotide used in preparing the mutant hBAMBI-luciferase construct was used as the mutant competitive molecule.

Sequence of GST (P08515 whole entry, one chain of several): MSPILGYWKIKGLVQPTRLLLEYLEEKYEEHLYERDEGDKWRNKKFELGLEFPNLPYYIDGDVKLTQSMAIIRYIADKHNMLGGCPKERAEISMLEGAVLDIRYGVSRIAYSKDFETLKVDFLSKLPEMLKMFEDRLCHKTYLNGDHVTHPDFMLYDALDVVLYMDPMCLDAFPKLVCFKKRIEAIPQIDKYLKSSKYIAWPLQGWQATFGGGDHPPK
T1 sequence (Q9NQB0 288-519, one chain of several): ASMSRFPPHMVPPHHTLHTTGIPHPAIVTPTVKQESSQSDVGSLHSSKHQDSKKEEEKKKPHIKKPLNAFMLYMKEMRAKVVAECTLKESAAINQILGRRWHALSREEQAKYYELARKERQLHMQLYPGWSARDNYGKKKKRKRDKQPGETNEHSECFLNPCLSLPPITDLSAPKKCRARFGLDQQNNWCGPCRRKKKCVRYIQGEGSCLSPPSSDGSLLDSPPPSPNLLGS

B1: TBE5 (dsDNA)
DNA 1: CTAAAAGTTCATGCCTTTGAATTTGGG
DNA 2: CCCAAATTCAAAGGCATGAACTTTTAG
[1]
  binding result: no binding
[2]
  binding result: binds

B2: TBE1 mutant (dsDNA)
DNA 1: GCTGCAGAGGATTGATTAGCGGTAG
DNA 2: CTACCGCTAATCAATCCTCTGCAGC
[3]
  binding result: no binding

B3: TBE2 mutant (dsDNA)
DNA 1: CTCTGTGTCTAGTTAAATGTATCTCTG
DNA 2: CAGAGATACATTTAACTAGACACAGAG
[3]
  binding result: no binding

B4: TBE2 (dsDNA)
DNA 1: CTCTGTGTCTCTTTGAATGTATCTCTG
DNA 2: CAGAGATACATTCAAAGAGACACAGAG
[1]
  binding result: no binding
[2]
  binding result: binds

B5: TBE3 (dsDNA)
DNA 1: CTCTAAGTGTCTTTGTATCTCTGAATG
DNA 2: CATTCAGAGATACAAAGACACTTAGAG
[1]
  binding result: no binding
[2]
  binding result: binds

B6: TBE5 mutant (dsDNA)
DNA 1: CTAAAAGTTCATGCAGTTAAATTTGGG
DNA 2: CCCAAATTTAACTGCATGAACTTTTAG
[3]
  binding result: no binding

B7: TBE4 (dsDNA)
DNA 1: CTGGAAATATCAAAGGCGGGCAGAAC
DNA 2: GTTCTGCCCGCCTTTGATATTTCCAG
[1]
  binding result: no binding
[2]
  binding result: binds

B8: TBE3 mutant (dsDNA)
DNA 1: CTCTAAGTGTAGTTATATCTCTGAATG
DNA 2: CATTCAGAGATATAACTACACTTAGAG
[3]
  binding result: no binding

B9: TBE1 (dsDNA)
DNA 1: GCTGCAGAGGCTTTGTTAGCGGTAG
DNA 2: CTACCGCTAACAAAGCCTCTGCAGC
[1]
  binding result: no binding
[2]
  binding result: binds

B10: TBE4 mutant (dsDNA)
DNA 1: CTGGAAATATAGAAAGCGGGCAGAAC
DNA 2: GTTCTGCCCGCTTTCTATATTTCCAG
[3]
  binding result: no binding
